Experimental data reported in patent US20160194681.
Where a chain is given by its changes, count along the chain named.

Target: genetically encoded FRET-based MMP-9 activity biosensor with α-helical linker, P09619
Sequence (P09619 whole entry, looked up): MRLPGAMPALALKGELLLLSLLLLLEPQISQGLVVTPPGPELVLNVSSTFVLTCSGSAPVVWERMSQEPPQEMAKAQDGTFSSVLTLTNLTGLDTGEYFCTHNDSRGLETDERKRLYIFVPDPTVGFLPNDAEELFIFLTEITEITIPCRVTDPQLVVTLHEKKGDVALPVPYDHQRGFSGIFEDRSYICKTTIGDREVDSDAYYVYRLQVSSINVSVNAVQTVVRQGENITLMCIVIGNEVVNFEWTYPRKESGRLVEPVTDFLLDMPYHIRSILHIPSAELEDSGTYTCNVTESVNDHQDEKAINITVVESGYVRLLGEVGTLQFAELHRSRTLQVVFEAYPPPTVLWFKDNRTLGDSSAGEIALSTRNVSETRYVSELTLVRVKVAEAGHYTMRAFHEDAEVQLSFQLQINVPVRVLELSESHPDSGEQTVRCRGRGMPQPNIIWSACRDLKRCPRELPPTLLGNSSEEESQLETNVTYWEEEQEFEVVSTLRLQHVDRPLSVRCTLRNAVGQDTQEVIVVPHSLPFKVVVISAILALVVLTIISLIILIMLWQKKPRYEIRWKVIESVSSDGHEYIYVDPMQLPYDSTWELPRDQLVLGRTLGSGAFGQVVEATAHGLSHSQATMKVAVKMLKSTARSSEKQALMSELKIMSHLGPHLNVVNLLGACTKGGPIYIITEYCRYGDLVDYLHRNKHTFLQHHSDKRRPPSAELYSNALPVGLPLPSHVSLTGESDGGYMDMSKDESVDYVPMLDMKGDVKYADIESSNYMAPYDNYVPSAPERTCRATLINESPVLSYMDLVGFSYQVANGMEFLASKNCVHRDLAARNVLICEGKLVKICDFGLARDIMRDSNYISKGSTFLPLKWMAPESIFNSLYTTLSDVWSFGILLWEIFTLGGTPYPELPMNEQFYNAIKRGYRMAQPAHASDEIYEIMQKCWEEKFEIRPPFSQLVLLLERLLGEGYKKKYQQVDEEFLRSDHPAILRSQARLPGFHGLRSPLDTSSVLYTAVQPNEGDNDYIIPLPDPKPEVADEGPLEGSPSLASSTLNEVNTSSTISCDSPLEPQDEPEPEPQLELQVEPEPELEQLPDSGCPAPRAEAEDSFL

B1: human auto-activating MMP-9 (protein)
chain: APRQRQSTLVLFPGDLRTNLTDRQLAEEYLYRYGYTRVAEMRGESKSLGPALLLLQKQLSLPETGELDSATLKAMRTPRCLVPDLGRFQTFEGDLKWHHHNITYWIQNYSEDLPRAVIDDAFARAFALWSAVTPLTFTRVYSRDADIVIQFGVAEHGDGYPFDGKDGLLAHAFPPGPGIQGDAHFDDDELWSLGKGVVVPTRFGNADGAACHFPFIFEGRSYSACTTDGRSDGLPWCSTTANYDTDDRFGFCPSERLYTQDGNADGKPCQFPFIFQGQSYSACTTDGRSDGYRWCATTANYDRDKLFGFCPTRADSTVMGGNSAGELCVFPFTFLGKEYSTCTSEGRGDGRLWCATTSNFDSDKKWGFCPDQGYSLFLVAAHEFGHALGLDHSSVPEALMYPMYRFTEGPPLHKDDVNGIRHLYGPRPEPEPRPPTTTTPQPTAPPTVCPTGPPTVHPSERPTAGPTGPPSAGPTGPPTAGPSTATTVPLSPVDDACNVNIFDAIAEIGNQLYLFKDGKYWRFSEGRGSRPQGPFLIADKWPALPRKLDSVFEERLSKKLFFFSGRQVWVYTGASVLGPRRLDKLGLGADVAQVTGALRSGRGKMLLFSGRRLWRFDVKAQMVDPRSASEVDRMFPGVPLDTHDVFQYREKAYFCQDRFYWRVSSRSELNQVDQVGYVTYDILQCPED
B1 was tested, and the “in vitro cleavage of the biosensor in HEK293 lysate, Western blot with anti-GFP antibody” value was “The MMP-9 activity biosensor is cleaved in vitro by a human auto-activating MMP-9”.

B2: inactive human MMP-9 (protein)
chain: B1 chain with L81G
B2 was tested, and the “in vitro cleavage of the biosensor in HEK293 lysate, Western blot with anti-GFP antibody” value was “Inactive human MMP-9 does not cleave the biosensor”.
